Measured values as given in paper PMC11374688, “Structural basis for transthiolation intermediates in the ubiquitin pathway” (Nature, 2024).

Target: T1, Schizosaccharomyces pombe Uba1 (lacking the first 12 amino acids) (S. pombe, UniProt O94609 13-1012, active site cysteine thiol linked to the dithioacetal carbon of the Ub(T) Gly76 surrogate)
T1 construct: Full-length Uba1 was used in the transthiolation assays; this molecule also stands for it in the functional rows; also called E1; source: E. coli BL21 (DE3) codon plus, purified (Ni-NTA, Ulp1, SEC, MonoQ)
T1 sequence (looked up): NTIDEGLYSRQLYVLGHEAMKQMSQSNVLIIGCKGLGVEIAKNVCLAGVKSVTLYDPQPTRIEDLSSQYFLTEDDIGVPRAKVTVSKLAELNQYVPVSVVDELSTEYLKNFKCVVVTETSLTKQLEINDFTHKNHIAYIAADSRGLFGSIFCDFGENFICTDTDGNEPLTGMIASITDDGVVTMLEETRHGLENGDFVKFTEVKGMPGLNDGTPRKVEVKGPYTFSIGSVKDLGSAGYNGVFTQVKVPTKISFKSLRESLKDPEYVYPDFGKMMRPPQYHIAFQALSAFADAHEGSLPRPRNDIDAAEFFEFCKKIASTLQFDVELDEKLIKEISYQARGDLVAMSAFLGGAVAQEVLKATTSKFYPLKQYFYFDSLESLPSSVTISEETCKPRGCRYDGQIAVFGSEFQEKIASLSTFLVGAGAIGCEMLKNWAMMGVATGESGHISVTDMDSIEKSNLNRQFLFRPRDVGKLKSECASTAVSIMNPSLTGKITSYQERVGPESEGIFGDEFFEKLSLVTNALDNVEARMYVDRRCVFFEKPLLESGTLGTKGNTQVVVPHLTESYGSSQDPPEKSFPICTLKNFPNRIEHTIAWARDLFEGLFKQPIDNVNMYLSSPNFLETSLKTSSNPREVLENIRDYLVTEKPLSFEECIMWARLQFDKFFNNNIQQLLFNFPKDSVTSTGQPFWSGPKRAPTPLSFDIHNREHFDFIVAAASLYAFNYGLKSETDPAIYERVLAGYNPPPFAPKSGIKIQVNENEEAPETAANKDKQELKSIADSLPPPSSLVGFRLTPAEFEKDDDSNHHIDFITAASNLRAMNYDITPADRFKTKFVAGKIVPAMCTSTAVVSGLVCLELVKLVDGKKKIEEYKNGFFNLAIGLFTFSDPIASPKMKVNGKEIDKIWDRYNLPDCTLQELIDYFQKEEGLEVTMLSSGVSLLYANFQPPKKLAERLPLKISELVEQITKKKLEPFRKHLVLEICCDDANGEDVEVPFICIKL
Assay: cryo-EM structure; E1–Ub(T)–E2 (Ub(T) Gly76 surrogate covalently linked to the E1 and E2 active site cysteines) at 3 mg/ml in Tris-HCl pH 7.2, 100 mM NaCl, preincubated 30 min on ice with 5 mM MgCl2, 1 mM ATP and ~0.8 molar equivalents of Ub; 0.05% CHAPSO; doubly and singly loaded complexes resolved from the same sample
Conditions: both partners purified

binding result: binds
B1: S. pombe Ub without tags (natural protein)
chain: not shown
notes: In clusters 3 to 5 of the doubly loaded complex the C terminus of Ub(A) is adenylated (Ub(A)-AMP); also called Ub(A); native Ub; source: E. coli BL21 (DE3) codon plus, purified (as described previously, with additional SEC)
